Assay results as given in patent publication US20240317847A1 (Bayer, published 2024).
Read-outs that look alike come from different tables or passages of the source.

T1: human IL-11 (human, UniProt P20809 22-199)
T1 sequence: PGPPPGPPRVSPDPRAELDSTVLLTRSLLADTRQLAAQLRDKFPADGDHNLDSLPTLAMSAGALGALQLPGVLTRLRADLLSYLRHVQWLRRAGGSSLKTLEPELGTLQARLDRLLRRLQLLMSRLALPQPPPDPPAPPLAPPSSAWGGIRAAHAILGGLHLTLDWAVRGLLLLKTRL

T2: murine IL-11 (mouse, UniProt P47873 22-199)
T2 sequence: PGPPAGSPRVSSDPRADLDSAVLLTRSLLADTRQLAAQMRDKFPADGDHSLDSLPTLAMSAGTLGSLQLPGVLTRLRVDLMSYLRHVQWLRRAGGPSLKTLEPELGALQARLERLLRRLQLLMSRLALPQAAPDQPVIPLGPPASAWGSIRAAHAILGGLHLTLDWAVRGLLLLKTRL

T3: cynomolgus IL-11 (cynomolgus, UniProt P20808 22-199)
T3 sequence: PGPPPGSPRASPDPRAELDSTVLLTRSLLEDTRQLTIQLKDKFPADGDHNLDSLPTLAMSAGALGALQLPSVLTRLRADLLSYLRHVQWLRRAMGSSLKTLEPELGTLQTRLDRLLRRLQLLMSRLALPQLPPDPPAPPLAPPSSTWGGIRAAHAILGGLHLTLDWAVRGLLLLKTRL

T4: rat IL-11 (rat, UniProt Q99MF5 22-199)
T4 sequence: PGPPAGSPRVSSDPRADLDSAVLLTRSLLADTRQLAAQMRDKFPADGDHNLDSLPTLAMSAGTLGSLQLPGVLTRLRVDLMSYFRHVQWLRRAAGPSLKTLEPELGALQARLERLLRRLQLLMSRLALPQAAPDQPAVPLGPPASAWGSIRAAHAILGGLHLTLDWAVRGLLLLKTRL

T5: human IL-11 (human, UniProt P20809 22-199)
T5 sequence: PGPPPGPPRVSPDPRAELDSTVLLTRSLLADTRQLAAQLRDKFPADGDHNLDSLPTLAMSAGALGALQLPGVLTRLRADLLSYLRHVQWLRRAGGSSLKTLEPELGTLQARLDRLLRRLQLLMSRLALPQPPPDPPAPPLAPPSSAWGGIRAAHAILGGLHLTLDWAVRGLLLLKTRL

T6: murine IL-11 (mouse, UniProt P47873 22-199)
T6 sequence: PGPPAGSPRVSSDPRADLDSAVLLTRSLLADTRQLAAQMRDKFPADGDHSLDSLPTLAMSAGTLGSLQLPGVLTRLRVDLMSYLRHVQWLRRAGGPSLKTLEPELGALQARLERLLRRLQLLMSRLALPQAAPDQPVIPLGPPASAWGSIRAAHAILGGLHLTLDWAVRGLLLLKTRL


Key:
human IL-11 [1] = biological target: T1, human IL-11; experiment: cell-based or functional assay
murine IL-11 [2] = biological target: T2, murine IL-11; experiment: cell-based or functional assay
human IL-11 [3] = biological target: T1, human IL-11; experiment: cell-based or functional assay; remark: listed apart in the source
murine IL-11 [4] = biological target: T2, murine IL-11; experiment: cell-based or functional assay; remark: listed apart in the source
cynomolgus IL-11 = biological target: T3, cynomolgus IL-11; experiment: cell-based or functional assay
rat IL-11 = biological target: T4, rat IL-11; experiment: cell-based or functional assay
human IL-11 [5] = biological target: T1, human IL-11; experiment: Tri-complex ELISA, hIL-11 + mIL-11Ra-Fc + hgp130-Fc, inhibition of complex formation
Experimental: In the Tri-complex ELISA format IL-11 antibodies are tested for their ability to inhibit the formation of a complex consisting of murine or human gp130-Fc fusion protein, with murine or human IL-11, and a murine IL11RA-Fc fusion protein. The assay format was adapted according to FIG. 18 (a, b), depending on whether murine or human IL-11 IgG antibodies were tested.
(§1) IgG converted antibodies were subjected to the experimental assay procedure described in Example 19 and IC50 [M], respectively efficacy (%) were calculated accordingly.

murine IL-11 [6] = biological target: T2, murine IL-11; experiment: Tri-complex ELISA, mIL-11 + mIL-11Ra-Fc + mgp130-Fc, inhibition of complex formation
Experimental: In a first step, 25 μl of goat anti human IgG (Sigma, #12136), diluted 1:1000 in coating buffer (Candor, #121125) was coated on the plate at 4° C. overnight. Next day, the plate was washed one time with 50 μl PBST and then blocked with 50 μl SmartBlock (Candor, #113125) for one hour at room temperature (RT). […] After three additional washes of the coated and blocked microtiter plate with PBS-T, 25 μl of each mixture were added and the assay plate was incubated for one hour at room temperature. After three additional washes, anti-mouse-gp130 biotinylated antibody (R&D, #BAF468) or anti-human gp130 biotinylated antibody (R&D, #BAF228), both 1:1000 in 10% SmartBlock PBS-T, was added and incubated for 1 hour at RT. After three additional washes, a Streptavidin-Peroxidase conjugate (Sigma, #S5512) 1:1000 in SmartBlock PBS-T was added and incubated for one hour at room temperature. After a final three washes, AmplexRed (Fisher Scientific, A12222), 1/1000 in PBS, 0,003% H₂O₂, was added as substrate and incubated for 15 min at RT in the dark. Then, the fluorescence was measured with a plate reader at 535/595 nm. Signals from dose responses were used to calculate IC50 values using GraphPad Prism software. Efficacy was calculated as [(signal measured at lowest antibody concentration−signal measured at the highest antibody concentration)×100] divided by (signal measured at lowest antibody concentration−signal measured in the absence of antibody at an IL11 concentration of 8.2E-11 [M]).
as §1

human IL-11 [7] = biological target: T5, human IL-11; experiment: cell-based or functional assay; remark: listed apart in the source
murine IL-11 [8] = biological target: T6, murine IL-11; experiment: cell-based or functional assay; remark: listed apart in the source
human IL-11 [9] = biological target: T5, human IL-11; experiment: cell-based or functional assay; remark: listed apart in the source
murine IL-11 [10] = biological target: T6, murine IL-11; experiment: cell-based or functional assay; remark: listed apart in the source

| RGA potency (mean) (human IL-11 [7]) [nM] | RGA potency (mean) (murine IL-11 [8]) [nM] | IC50, RGA 1 (human IL-11 [9]) [nM] | IC50, RGA 2 (human IL-11 [9]) [nM] | IC50, RGA 1 (murine IL-11 [10]) [nM] | IC50, RGA 2 (murine IL-11 [10]) [nM] | Binder | also measured |
| --- | --- | --- | --- | --- | --- | --- | --- |
| < 170 | < 170 | 67 | 141 | 47 | 23 | TPP-31288 (antibody, IgG4, V domains shown) VH: EVQLLESGGGVVQPGGSLRLSCAASGFTFSHYDMNWLRQAPGKGLEWVGVISYDGSNKFYADFVKGRFTISRDNSKNTLYLQMNSLRAEDTAVYYCARTPGSHFDYWGQGTLVTVSS VL: QSVLTQPPSASGTPGQRVTISCSGSSSNIGNNAVNWYQQLPGTAPKLLIYYDDLLPSGVPDRFSGSKSGTSASLAISGLRSEDEADYYCSAWDDSLNGVVFGGGTKLTVL |  |
| < 170 | < 170 | 61 | 76 | 27 | 23 | TPP-31289 (antibody, IgG4, V domains shown) VH: EVQLLESGGGLVQPGRSLRLSCAASGFTFSHYDMNWLRQAPGKGLEWVGVISYDGSNKFYADFVKGRFTISRDNSKNTLYLQMNSLRAEDTAVYYCARTPGSHFDYWGQGTLVTVSS VL: QSVLTQPPSASGTPGQRVTISCSGSSSNIGNNAVNWYQQLPGTAPKLLIYYDDLLPSGVPDRFSGSKSGTSASLAISGLRSEDEADYYCSAWDDSLNGVVFGGGTKLTVL |  |

Further lines, the binder ahead of its results:

| Binder | RGA potency (mean) (human IL-11 [7]) [nM] | RGA potency (mean) (murine IL-11 [8]) [nM] | IC50, RGA 1 (human IL-11 [9]) [nM] | IC50, RGA 2 (human IL-11 [9]) [nM] | IC50, RGA 1 (murine IL-11 [10]) [nM] | IC50, RGA 2 (murine IL-11 [10]) [nM] | also measured |
| --- | --- | --- | --- | --- | --- | --- | --- |
| TPP-23552 (antibody, human IgG1, kappa, hIgG1, Kappa; also called BSN 3C6 (WO2019238882)) heavy: not shown light: DIVLTQSPASLALSPGERATLSCRASKSVSTSGYSYIHWYQQKPGQPPRLLIYLASNLDSGVPARFSGSGSGTDFTLNIHPLEEEDFATYYCQHSRDLPPTFGQGTKLEIKRTVAAPSVFIFPPSDEQLKSGTASVVCLLNNFYPREAKVQWKVDNALQSGNSQESVTEQDSKDSTYSLSSTLTLSKADYEKHKVYACEVTHQGLSSPVTKSFNRGEC |  |  |  |  |  |  | Efficacy (%), Stat3 reporter gene assay (human IL-11 [1]): 87.9%; IC50, Stat3 reporter gene assay (human IL-11 [1]): 18 nM; Efficacy (%), Stat3 reporter gene assay (murine IL-11 [2]): 76%; IC50, Stat3 reporter gene assay (murine IL-11 [2]): 22 nM; Efficacy (%), Stat3 reporter gene assay (human IL-11 [3]): 76.7%; IC50, Stat3 reporter gene assay (human IL-11 [3]): 3.7 nM; Efficacy (%), Stat3 reporter gene assay (murine IL-11 [4]): 90.9%; IC50, Stat3 reporter gene assay (murine IL-11 [4]): 8.1 nM; Efficacy (%), Stat3 reporter gene assay (cynomolgus IL-11): 52.4%; Efficacy (%), Stat3 reporter gene assay (rat IL-11): 81.3%; IC50, Stat3 reporter gene assay (rat IL-11): 8.8 nM; Efficacy (%) (human IL-11 [5]): 90.6%; IC50 (human IL-11 [5]): 6.8 nM; Efficacy (%) (murine IL-11 [6]): 90.7%; IC50 (murine IL-11 [6]): 23 nM |
| TPP-31286 (antibody, IgG4, V domains shown) VH: QVQLLESGGGLVQPGGSLRLSCAASGFTFSHYDMNWLRQAPGKGLEWVGVISYDGSNKFYADFVKGRFTISRDNSKNTLYLQMNSLRAEDTAVYYCARTPGSHFDYWGQGTLVTVSS VL: QSVLTQPPSASGTPGQRVTISCSGSSSNIGNNAVNWYQQLPGTAPKLLIYYDDLLPSGVPDRFSGSKSGTSASLAISGLRSEDEADYYCSAWDDSLNGVVFGGGTKLTVL | < 170 | < 170 | 59 | 37 | 18 | 13 |  |
| TPP-31287 (antibody, IgG4, V domains shown) VH: EVQLVESGGGLVQPGGSLRLSCAASGFTFSHYDMNWLRQAPGKGLEWVGVISYDGSNKFYADFVKGRFTISRDNSKNTLYLQMNSLRAEDTAVYYCARTPGSHFDYWGQGTLVTVSS VL: QSVLTQPPSASGTPGQRVTISCSGSSSNIGNNAVNWYQQLPGTAPKLLIYYDDLLPSGVPDRFSGSKSGTSASLAISGLRSEDEADYYCSAWDDSLNGVVFGGGTKLTVL | < 170 | < 170 | 127 | 56 | 41 | 15 |  |
